B1: SI-35E21 (bispecific antibody, not shown: small tags and cut ends)
heavy (part 1 of 7): DIQMTQSPSTLSASVGDRVTITCQSSQSVYSNWFSWYQQKPGKAPKLLIYSASTLASGVPSRFSGSGSGTEFTLTISSLQPDDFATYYCAGGYNTVIDTFAFGGGTKVEIK
heavy (part 2 of 7): EVQLLESGGGLVQPGGSLRLSCAASGIDFSRRYYMCWVRQAPGKGLEWIACIYTGSRDTPHYASSAKGRFTISRDNSKNTLYLQMNSLRAEDTAVYYCAREGSLWGQGTLVTVSS
heavy (part 3 of 7): not shown
heavy (part 4 of 7): EVQLVESGGGLVQPGGSLRLSCTASGFSLSSYAMSWVRQAPGRGLEWIGIIYASGSTYYASSAKGRFTISKDNTKNTVDLQMNSLRAEDTAVYYCARIYDGMDLWGQGTLVTVSS
heavy (part 5 of 7): DIQMTQSPSSLSASVGDRVTINCQASQNIYSYLSWYQQKPGKVPKRLIYLASTLASGVPSRFSGSGSGTDYTLTISSLQPEDVATYYCQSNYNGNYGFGGGTKVEIK
heavy (part 6 of 7): EVQLVESGGGLVQPGGSLRLSCAASGFTISTNAMSWVRQAPGKGLEWIGVITGRDITYYASWAKGRFTISRDNSKNTLYLQMNSLRAEDTAVYYCARDGGSSAITSNNIWGQGTLVTVSS
heavy (part 7 of 7): DVVMTQSPSTLSASVGDRVTINCQASESISSWLAWYQQKPGKAPKLLIYEASKLASGVPSRFSGSGSGTEFTLTISSLQPDDFATYYCQGYFYFISRTYVNSFGGGTKVEIK
light: AYDMTQSPSSVSASVGDRVTIKCQASEDIYSFLAWYQQKPGKAPKLLIHSASSLASGVPSRFSGSGSGTDFTLTISSLQPEDFATYYCQQGYGKNNVDNAFGGGTKVEIKRTVAAPSVFIFPPSDEQLKSGTASVVCLLNNFYPREAKVQWKVDNALQSGNSQESVTEQDSKDSTYSLSSTLTLSKADYEKHKVYACEVTHQGLSSPVTKSFNRGEC
notes: Tetra-specific; the listing has only VHv3/VLv2
B2: SI-35E22 (bispecific antibody, not shown: small tags and cut ends)
heavy (part 1 of 7): ALVMTQSPSTLSASVGDRVTINCQASEDIDTYLAWYQQKPGKAPKLLIFYASDLASGVPSRFSGSGSGTEFTLTISSLQPDDFATYYCQGGYYTSSADTRGAFGGGTKVEIK
heavy (part 2 of 7): QSLVESGGGLVQPGGSLRLSCAASGFSFSSNYWICWVRQAPGKGLEWIACIYVGSSGDTYYASSAKGRFTISRDNSKNTLYLQMNSLRAEDTAVYYCARDSSSYYMFNLWGQGTLVTVSS
heavy (part 3 of 7): not shown
heavy (part 4 of 7): B1 heavy (part 4 of 7)
heavy (part 5 of 7): B1 heavy (part 5 of 7)
heavy (part 6 of 7): B1 heavy (part 6 of 7)
heavy (part 7 of 7): B1 heavy (part 7 of 7)
light: B1 light
notes: as for B1
B3: SI-35E23 (bispecific antibody, not shown: small tags and cut ends)
heavy (part 1 of 7): DVVMTQSPSSVSASVGDRVTITCQASQNIRTYLSWYQQKPGKAPKLLIYAAANLASGVPSRFSGSGSGTDFTLTISDLEPGDAATYYCQSTYLGTDYVGGAFGGGTKVEIK
heavy (part 2 of 7): RSLVESGGGLVQPGGSLRLSCTASGFTISSYHMQWVRQAPGKGLEYIGTISSGGNVYYASSARGRFTISRPSSKNTVDLQMNSLRAEDTAVYYCARDSGYSDPMWGQGTLVTVSS
heavy (part 3 of 7): not shown
heavy (part 4 of 7): B1 heavy (part 4 of 7)
heavy (part 5 of 7): B1 heavy (part 5 of 7)
heavy (part 6 of 7): B1 heavy (part 6 of 7)
heavy (part 7 of 7): B1 heavy (part 7 of 7)
light: B1 light
notes: as for B1
B4: SI-35E24 (bispecific antibody, not shown: small tags and cut ends)
heavy (part 1 of 7): B1 heavy (part 1 of 7)
heavy (part 2 of 7): B1 heavy (part 2 of 7)
heavy (part 3 of 7): not shown
heavy (part 4 of 7): EVQLVESGGGLVQPGGSLRLSCAASGFSLNNYWMSWVRQAPGKGLEWIGTISSGAYTWFATWATGRFTISRDNSKNTLYLQMNSLRAEDTAVYYCARYSSTTDWTYFNIWGQGTLVTVSS
heavy (part 5 of 7): DIQMTQSPSTLSASVGDRVTITCQASQSINNYLAWYQQKPGKAPKLLIYRASTLESGVPSRFSGSGSGTEFTLTISSLQPDDFATYYCQSYNGVGRTAFGGGTKVEIK
heavy (part 6 of 7): B1 heavy (part 6 of 7)
heavy (part 7 of 7): B1 heavy (part 7 of 7)
light: B1 light
notes: Tetra-specific; the listing has only VHv3/VLv2; also called SI-3524

Biological target: T1, human 41BB (human, UniProt Q07011 24-255)
T1 construct: whole, on cells; also called 41BB expressing CHO cells; human 41BB transfected CHO cells
Experiment: FACS on human 41BB transfected CHO cells
Description: (§1) Example 2: FACS Analysis of Tetra-Specific GNC Antibody Binding to Human 41BB Transfected CHO Cells The tetra-specific GNC antibodies listed in TABLEs 3 and 4 were tested for binding to Chinese hamster ovary cells (CHO) cells stably expressing a full-length human ROR1. Antibodies were prepared at 2× final concentration and titrated 1:5 across 3 wells of a 96 well plate in 50 ul of PBS/2% FBS and then 5,000 ROR1-CHO cells in 50 ul PBS/2% FBS were added. This mixture was incubated for 30 minutes on ice, washed once with 200 ul PBS/2% FBS, and then the secondary antibody PE Goat anti-Human IgG Fc at 1:1000 dilution of stock was added, and this mixture was incubated for 30 minutes on ice. Cells were washed 2×200 ul PBS/2% FBS, resuspended in 50 ul PBS/2% FBS and analyzed on a BD LSRFORTESSA and the binding profile is shown in FIG. 5. All of the tetra-specific GNC antibodies except for the control SI-27E12 contain a 41BB binding domain, 460C3, 420H5, or 466F6 and bound to 41BB expressing CHO cells with varying intensity.

T1 sequence (Q07011 24-255): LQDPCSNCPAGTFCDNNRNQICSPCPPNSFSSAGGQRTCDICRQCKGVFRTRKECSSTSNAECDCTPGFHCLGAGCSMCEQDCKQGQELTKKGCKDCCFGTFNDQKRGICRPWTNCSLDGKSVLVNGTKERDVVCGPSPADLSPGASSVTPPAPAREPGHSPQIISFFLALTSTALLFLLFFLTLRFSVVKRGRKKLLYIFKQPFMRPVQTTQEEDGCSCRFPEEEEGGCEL

binding result | Binder
binds | B1
binds | B2
binds | B3
binds | B4

Biological target: T2, human PD-L1 (human, UniProt Q9NZQ7 19-290)
T2 construct: whole, on cells; also called PDL1 expressing CHO cells; human PD-L1 transfected CHO cells
Experiment: FACS on human PD-L1 transfected CHO cells
Description: as §1, with “3:” for “2:”, “PDL1” for “41BB”, “[…]” for “a full-length”, “6.” for “5. All of the tetra-specific GNC antibodies except for the control SI-27E12 contain a 41BB binding domain, 460C3, 420H5, or 466F6 and bound to 41BB expressing CHO cells with varying intensity.”

T2 sequence (Q9NZQ7 19-290): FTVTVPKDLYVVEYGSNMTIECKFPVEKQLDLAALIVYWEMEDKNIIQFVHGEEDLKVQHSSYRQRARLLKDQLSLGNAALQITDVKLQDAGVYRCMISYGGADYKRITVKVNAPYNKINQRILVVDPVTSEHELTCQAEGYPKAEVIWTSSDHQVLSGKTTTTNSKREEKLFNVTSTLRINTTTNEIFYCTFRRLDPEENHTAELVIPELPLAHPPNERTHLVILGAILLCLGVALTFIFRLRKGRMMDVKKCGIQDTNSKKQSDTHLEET

binding result | Binder
binds | B1
binds | B2
binds | B3
binds | B4

Biological target: T3, full-length human ROR1 (human, UniProt Q01973 30-937)
T3 construct: whole, on cells; also called human ROR1 transfected CHO cells; ROR1-CHO cells
Experiment: FACS on CHO cells stably expressing full-length human ROR1
Description: as §1, with “Example 1:” for “Example 2:”, “Tetra-Specific Specific” for “Tetra-Specific GNC”, “Human ROR1” for “Human 41BB”, “FIG. 4.” for “FIG. 5. All of the tetra-specific GNC antibodies except for the control SI-27E12 contain a 41BB binding domain, 460C3, 420H5, or 466F6 and bound to 41BB expressing CHO cells with varying intensity.”

T3 sequence (Q01973 30-937): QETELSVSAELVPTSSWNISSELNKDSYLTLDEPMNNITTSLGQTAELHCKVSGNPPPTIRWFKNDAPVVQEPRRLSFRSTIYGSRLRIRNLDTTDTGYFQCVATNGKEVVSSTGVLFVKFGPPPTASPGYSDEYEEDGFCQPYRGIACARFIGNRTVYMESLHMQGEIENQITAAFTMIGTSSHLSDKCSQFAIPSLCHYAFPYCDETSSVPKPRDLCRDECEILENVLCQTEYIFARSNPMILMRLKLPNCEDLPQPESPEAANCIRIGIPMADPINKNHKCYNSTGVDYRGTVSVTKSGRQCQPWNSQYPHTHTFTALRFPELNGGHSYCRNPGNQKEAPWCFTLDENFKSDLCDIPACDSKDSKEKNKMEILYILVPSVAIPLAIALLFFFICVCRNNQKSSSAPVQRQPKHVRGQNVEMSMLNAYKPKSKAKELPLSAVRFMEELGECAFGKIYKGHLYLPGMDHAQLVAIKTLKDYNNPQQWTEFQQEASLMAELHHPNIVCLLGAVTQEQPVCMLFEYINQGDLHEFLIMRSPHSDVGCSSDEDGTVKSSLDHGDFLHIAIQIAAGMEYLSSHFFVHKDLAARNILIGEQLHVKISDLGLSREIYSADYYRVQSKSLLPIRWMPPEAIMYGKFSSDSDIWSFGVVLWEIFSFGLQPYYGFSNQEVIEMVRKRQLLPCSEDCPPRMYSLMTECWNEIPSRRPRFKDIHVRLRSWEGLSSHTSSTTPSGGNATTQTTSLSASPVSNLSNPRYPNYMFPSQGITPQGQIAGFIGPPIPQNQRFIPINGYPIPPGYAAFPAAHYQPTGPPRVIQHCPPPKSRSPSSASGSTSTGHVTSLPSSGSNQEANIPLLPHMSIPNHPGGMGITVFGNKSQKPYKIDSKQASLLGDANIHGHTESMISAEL

binding result | Binder
binds | B1
binds | B2
binds | B3
no binding | B4

Reference: patent US12384850 (SYSTIMMUNE, dated 2025)
